Reference: PMC5653825, “Arrhythmogenic cardiomyopathy related DSG2 mutations affect desmosomal cadherin binding kinetics” (Scientific Reports, 2017)

Columns and labels:
Dsg2 (Homo sapiens) = Dsg2 (Homo sapiens) (UniProt Q14126); assay: sedimentation equilibrium AUC; settings: cited from earlier work
[1] = target: the molecule itself; assay: AFM single molecule force spectroscopy; Dsg2 EC1-4 covalently immobilised on both the AFM tip (long PEG linker) and the gold substrate; calcium buffer (2 mM CaCl2, 10 mM HEPES, 150 mM NaCl, pH 7.4); pulling velocities 200 to 5,000 nm s^-1; k- and x from the Evans and Ritchie model, Kd and k+ from the free energy by Jarzynski's equality; monomer to homodimer

Molecule: Dsg2 (from UniProt Q14126)
- Kd (Dsg2 (Homo sapiens)): 433 µM

B1: Desmoglein-2 (Dsg2) p.V343I (p.V392I), recombinant extracellular cadherin domains 1-4 (EC1-4) (domain or fragment)
chain: AWITAPVALREGEDLSKKNPIAKIHSDLAEERGLKITYKYTGKGITEPPFGIFVFNKDTGELNVTSILDREETPFFLLTGYALDARGNNVEKPLELRIKVLDINDNEPVFTQDVFVGSVEELSAAHTLVMKINATDADEPNTLNSKISYRIVSLEPAYPPVFYLNKDTGEIYTTSVTLDREEHSSYTLTVEARDGNGEVTDKPVKQAQVQIRILDVNDNIPVVENKVLEGMVEENQVNVEVTRIKVFDADEIGSDNWLANFTFASGNEGGYFHIETDAQTNEGIVTLIKEVDYEEMKNLDFSVIVANKAAFHKSIRSKYKPTPIPIKVKVKNVKEGIHFKSSIISIYVSESMDRSSKGQIIGNFQAFDEDTGLPAHARYVKLEDRDNWISVDSVTSEIKLAKLPDFESRYVQNGTYTVKIVAISEDYPRKTITGTVLINVEDINDNCPTLIEPV
modifications: thiol of the unique cysteine C447 (C496) covalently coupled to the maleimide of a cross-linker (maleimide-PEG-succinimidyl valerate 3,400 on the cantilever; NHS 3-maleimidopropionate on the gold substrate)
- Kd [1]: 1010 µM
- bond lifetime tau [1]: 1.73 s
- koff [1]: 0.58 s⁻¹
- kon [1]: 573 M⁻¹ s⁻¹

B2: Desmoglein-2 (Dsg2) p.D105E (p.D154E), recombinant extracellular cadherin domains 1-4 (EC1-4) (domain or fragment)
chain: AWITAPVALREGEDLSKKNPIAKIHSDLAEERGLKITYKYTGKGITEPPFGIFVFNKDTGELNVTSILDREETPFFLLTGYALDARGNNVEKPLELRIKVLDINENEPVFTQDVFVGSVEELSAAHTLVMKINATDADEPNTLNSKISYRIVSLEPAYPPVFYLNKDTGEIYTTSVTLDREEHSSYTLTVEARDGNGEVTDKPVKQAQVQIRILDVNDNIPVVENKVLEGMVEENQVNVEVTRIKVFDADEIGSDNWLANFTFASGNEGGYFHIETDAQTNEGIVTLIKEVDYEEMKNLDFSVIVANKAAFHKSIRSKYKPTPIPIKVKVKNVKEGIHFKSSVISIYVSESMDRSSKGQIIGNFQAFDEDTGLPAHARYVKLEDRDNWISVDSVTSEIKLAKLPDFESRYVQNGTYTVKIVAISEDYPRKTITGTVLINVEDINDNCPTLIEPV
modifications: thiol of the unique cysteine C447 (C496) covalently coupled to the maleimide of a cross-linker (maleimide-PEG-succinimidyl valerate 3,400 on the cantilever; NHS 3-maleimidopropionate on the gold substrate)
- Kd [1]: 817 µM
- bond lifetime tau [1]: 3.39 s
- koff [1]: 0.3 s⁻¹
- kon [1]: 361 M⁻¹ s⁻¹

B3: Desmoglein-2 (Dsg2) wildtype, recombinant extracellular cadherin domains 1-4 (EC1-4) (domain or fragment)
chain: AWITAPVALREGEDLSKKNPIAKIHSDLAEERGLKITYKYTGKGITEPPFGIFVFNKDTGELNVTSILDREETPFFLLTGYALDARGNNVEKPLELRIKVLDINDNEPVFTQDVFVGSVEELSAAHTLVMKINATDADEPNTLNSKISYRIVSLEPAYPPVFYLNKDTGEIYTTSVTLDREEHSSYTLTVEARDGNGEVTDKPVKQAQVQIRILDVNDNIPVVENKVLEGMVEENQVNVEVTRIKVFDADEIGSDNWLANFTFASGNEGGYFHIETDAQTNEGIVTLIKEVDYEEMKNLDFSVIVANKAAFHKSIRSKYKPTPIPIKVKVKNVKEGIHFKSSVISIYVSESMDRSSKGQIIGNFQAFDEDTGLPAHARYVKLEDRDNWISVDSVTSEIKLAKLPDFESRYVQNGTYTVKIVAISEDYPRKTITGTVLINVEDINDNCPTLIEPV
modifications: thiol of the unique cysteine C447 (C496) covalently coupled to the maleimide of a cross-linker (maleimide-PEG-succinimidyl valerate 3,400 on the cantilever; NHS 3-maleimidopropionate on the gold substrate)
- Kd [1]: 412 µM
- bond lifetime tau [1]: 0.33 s
- koff [1]: 2.99 s⁻¹
- kon [1]: 7270 M⁻¹ s⁻¹
